Data published in patent US20250320281A1.

Tests used:
Assay in all cases: cell-based or functional assay
[1] = target: HIV-1 Env of isolate VLGCA1 (clade A pseudovirus) (HIV-1)
[2] = target: HIV-1 Env of isolate MGRM-D-001 (clade D pseudovirus) (HIV-1)
[3] = target: HIV-1 Env of pseudovirus MGRM-G-019 (HIV-1, clade G isolate MGRM-G-019)
[4] = target: HIV-1 IAVI-C22 envelope glycoprotein (Env) on pseudovirus (HIV-1)
[5] = target: HIV-1 envelope glycoprotein (Env) of isolate MGRM-A-007, clade A (HIV-1)
[6] = target: HIV-1 92BR020 envelope glycoprotein (Env) on pseudovirus (HIV-1)
[7] = target: HIV-1 Env of pseudovirus MGRM-F1-018 (HIV-1)
[8] = target: HIV-1 Env of isolate 97ZA012 (clade C) (HIV-1 isolate 97ZA012)
[9] = target: HIV-1 Env of isolate MGRM-Chronic-B-004, clade B, on pseudovirus (HIV-1)
[10] = target: HIV-1 Env of pseudovirus MGRM-F1-016 (HIV-1)
[11] = target: HIV-1 Env of isolate MGRM-D-019 (clade D pseudovirus) (HIV-1)
[12] = target: HIV-1 Env of pseudovirus MGRM-AE-004 (clade CRF01_AE) (HIV-1)
[13] = target: HIV-1 Env of pseudovirus MGRM-Chronic-B-010 (HIV-1)
[14] = target: HIV-1 Env of isolate MGRM-D-011 (clade D pseudovirus) (HIV-1)
[15] = target: HIV-1 Env of isolate MGRM-D-016 (clade D pseudovirus) (HIV-1)
[16] = target: HIV-1 envelope glycoprotein (Env) of isolate 92RW020, clade A (HIV-1)
[17] = target: HIV-1 Env of pseudovirus MGRM-AG-009 (clade CRF_AG) (HIV-1)
[18] = target: HIV-1 Env of isolate MGRM-D-014 (clade D pseudovirus) (HIV-1)
[19] = target: HIV-1 envelope glycoprotein (Env) of isolate 92UG031, clade A (HIV-1)
[20] = target: HIV-1 Env of isolate MGRM-F1-013 (HIV-1)
[21] = target: HIV-1 Env of isolate APV_17 (subtype B pseudovirus) (HIV-1)
[22] = target: HIV-1 Env of isolate 92UG001 (pseudovirus) (HIV-1)
[23] = target: aMLV envelope, on pseudovirus (negative control virus)
[24] = target: HIV-1 Env of isolate APV_13 (subtype B pseudovirus) (HIV-1)
[25] = target: HIV-1 Env of isolate 93TH305 (subtype B pseudovirus) (HIV-1)
[26] = target: HIV-1 Env of isolate MGRM-D-029 (pseudovirus) (HIV-1)
[27] = target: HIV-1 Env of isolate MGRM-D-018 (pseudovirus) (HIV-1)
[28] = target: HIV-1 Env of isolate MGRM-Chronic-B-012 (subtype B pseudovirus) (HIV-1)
[29] = target: HIV-1 Env of isolate MGRM-C-028 (HIV-1)
[30] = target: HIV-1 Env of isolate 93IN905 (subtype C pseudovirus) (HIV-1)
[31] = target: HIV-1 Env of isolate MGRM-C-026 (pseudovirus) (HIV-1)
[32] = target: HIV-1 MGRM-D-001 Env (pseudovirus) (HIV-1)
[33] = target: HIV-1 Env of isolate JRFL (subtype B) (HIV-1)
[34] = target: HIV-1 Env of isolate MG RM-D-014 (HIV-1)
[35] = target: HIV-1 envelope glycoprotein (Env) of isolate MGRM-C-017 (HIV-1)
[36] = target: HIV-1 Env of isolate MGRM-AG-012 (subtype AG) (HIV-1)
[37] = target: HIV-1 Env of isolate 92UG031 (HIV-1)
[38] = target: HIV-1 Env of isolate MGRM-Chronic-B-002 (subtype B) (HIV-1)
[39] = target: HIV-1 envelope glycoprotein (Env) of isolate MGRM-C-007 (HIV-1)
[40] = target: HIV-1 Env of isolate 94UG103 (HIV-1)
[41] = target: HIV-1 Env of isolate MGRM-AG-008 (subtype AG) (HIV-1)
[42] = target: HIV-1 envelope glycoprotein (Env) of isolate MGRM-C-012 (HIV-1)
[43] = target: HIV-1 Env of isolate MGRM-A-003 (HIV-1)
[44] = target: HIV-1 Env of isolate 93MW959 (subtype C) (HIV-1)
[45] = target: HIV-1 Env of isolate CAAN.A2 (subtype B) (HIV-1)

Sequence of 5329_C19 (PGT-136) (antibody) (VH): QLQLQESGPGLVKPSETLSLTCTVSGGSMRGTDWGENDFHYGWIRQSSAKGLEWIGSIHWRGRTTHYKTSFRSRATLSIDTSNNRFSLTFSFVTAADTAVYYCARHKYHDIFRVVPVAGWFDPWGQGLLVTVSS
Sequence of 5329_C19 (PGT-136) (antibody) (VL): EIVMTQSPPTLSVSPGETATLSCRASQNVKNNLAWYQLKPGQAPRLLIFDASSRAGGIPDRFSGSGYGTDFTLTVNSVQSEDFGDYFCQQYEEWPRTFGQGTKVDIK

Row | Substance | IC50, pseudovirus neutralization [6] [µg/mL] | IC50 (µg/mL), pseudovirus neutralization [20] [µg/mL] | IC50 (µg/mL), pseudovirus neutralization [21] [µg/mL] | IC50, pseudovirus neutralization [22] [µg/mL] | IC50, pseudovirus neutralization [23] [µg/mL] | IC50 (µg/mL), pseudovirus neutralization [24] [µg/mL] | IC50 (µg/mL), pseudovirus neutralization [25] [µg/mL] | IC50, pseudovirus neutralization [26] [µg/mL] | IC50, pseudovirus neutralization [27] [ng/mL] | IC50 (µg/mL), pseudovirus neutralization [28] [µg/mL] | neutralization IC50 [29] [µg/mL] | IC50 (µg/mL), pseudovirus neutralization [30] [µg/mL] | Primary Neutralization Index (B cell culture supernatant) [31] | neutralization IC50 (pseudovirus) [32] [µg/mL] | Polyclonal Transfectant Neutralization Index [31] | other results
1 | 2F5 (antibody) | > 50 |  |  |  |  |  |  |  |  |  |  |  |  |  |  | IC50 (µg/ml), pseudovirus neutralization [1]: 3.9 µg/mL; IC50 (µg/ml), pseudovirus neutralization [2]: 0.63 µg/mL; IC50 (µg/ml), pseudovirus neutralization [3]: > 50 µg/mL; IC50, pseudovirus neutralization [4]: > 50 µg/mL; IC50 (µg/ml), pseudovirus neutralization [5]: 16.3 µg/mL; IC50 (µg/ml), pseudovirus neutralization [7]: 3.91 µg/mL; IC50 (µg/ml), pseudovirus neutralization [8]: > 50 µg/mL; IC50 (µg/ml), pseudovirus neutralization [9]: 2.41 µg/mL; IC50 (µg/ml), pseudovirus neutralization [10]: 21.5 µg/mL; IC50 (µg/ml), pseudovirus neutralization [11]: 0.14 µg/mL; IC50 [12]: 0.98 µg/mL; IC50 (µg/ml), pseudovirus neutralization [13]: 0.96 µg/mL; IC50 (µg/ml), pseudovirus neutralization [14]: > 50 µg/mL; IC50 (µg/ml), pseudovirus neutralization [15]: 9.85 µg/mL; IC50 (µg/ml), pseudovirus neutralization [16]: 3.36 µg/mL; IC50 [17]: 24.8 µg/mL; IC50 (µg/ml), pseudovirus neutralization [18]: 2.22 µg/mL; IC50 (µg/ml), pseudovirus neutralization [19]: 3.81 µg/mL
2 | 2G12 (antibody) | 2.26 |  |  |  |  |  |  |  |  |  |  |  |  |  |  | IC50 (µg/ml), pseudovirus neutralization [1]: > 50 µg/mL; IC50 (µg/ml), pseudovirus neutralization [2]: > 50 µg/mL; IC50 (µg/ml), pseudovirus neutralization [3]: 31 µg/mL; IC50, pseudovirus neutralization [4]: > 50 µg/mL; IC50 (µg/ml), pseudovirus neutralization [5]: > 50 µg/mL; IC50 (µg/ml), pseudovirus neutralization [7]: > 50 µg/mL; IC50 (µg/ml), pseudovirus neutralization [8]: > 50 µg/mL; IC50 (µg/ml), pseudovirus neutralization [9]: 8.65 µg/mL; IC50 (µg/ml), pseudovirus neutralization [10]: > 50 µg/mL; IC50 (µg/ml), pseudovirus neutralization [11]: > 50 µg/mL; IC50 [12]: > 50 µg/mL; IC50 (µg/ml), pseudovirus neutralization [13]: 1.5 µg/mL; IC50 (µg/ml), pseudovirus neutralization [14]: 1.5 µg/mL; IC50 (µg/ml), pseudovirus neutralization [15]: > 50 µg/mL; IC50 (µg/ml), pseudovirus neutralization [16]: 0.48 µg/mL; IC50 [17]: > 50 µg/mL; IC50 (µg/ml), pseudovirus neutralization [18]: > 50 µg/mL; IC50 (µg/ml), pseudovirus neutralization [19]: > 50 µg/mL
3 | 4838_L06 (PGT-121) (antibody) |  | 0.083 | 0.066 | > 50 | > 10 | 0.251 | 0.007 | > 50 | 5 | 0.036 | 0.472 | 0.005 |  |  |  | 
4 | 4858_P08 (PGT-123) (antibody) |  | 0.08 | 0.114 | > 50 | > 10 | 0.138 | 0.008 | > 50 | 7 | 0.227 | 0.402 | 0.004 | 33.8 | 0.215 |  | neutralization IC50 [6]: 0.013 µg/mL; neutralization IC80 [6]: 0.039 µg/mL; neutralization IC90 [6]: 0.0741 µg/mL; neutralization IC95 [6]: 0.134 µg/mL
5 | 4877_D15 (PGT-122) (antibody) |  | 0.152 | 0.25 | > 50 | > 10 | 0.778 | 0.013 | > 50 | 7 | 0.066 | 2.22 | 0.013 |  | 0.867 |  | 
6 | 5123_A06 (PGT-125) (antibody) |  | > 50 | 8.06 | > 50 | > 10 | 0.007 | 0.008 | > 50 | > 50000 | 0.036 | 14 | 0.009 | 512 | 2.31 | 88.3 | 
7 | 5141_B17 (PGT-126) (antibody) | 0.0163 | > 50 | 0.353 | > 50 | > 10 | 0.012 | 0.013 | > 50 | 9 | 0.027 | 0.196 | 0.015 | 654 | 0.0639 | 102 | IC80 (pseudovirus neutralization) [6]: 0.0457 µg/mL; IC90 (pseudovirus neutralization) [6]: 0.0846 µg/mL; IC95 (pseudovirus neutralization) [6]: 0.152 µg/mL
8 | 5145_B14 (PGT-127) (antibody) |  | > 50 | 10.4 | > 50 |  | 0.026 | 0.017 | > 50 | 21 | 0.075 | 7.57 | 0.024 | 86.9 |  | 2.62 | 
9 | 5329_C19 (PGT-136) (antibody) |  |  |  |  | > 10 |  |  |  |  |  |  |  | 6 |  |  | IC50 neutralization [33]: > 50 µg/mL; IC50 (µg/mL), pseudovirus neutralization [34]: > 50 µg/mL; IC50 (µg/mL), pseudovirus neutralization [35]: > 50 µg/mL; IC50 (µg/mL), pseudovirus neutralization [36]: > 50 µg/mL; IC50 [37]: > 50 µg/mL; IC50 neutralization [38]: > 50 µg/mL; IC50 (µg/mL), pseudovirus neutralization [39]: > 50 µg/mL; IC50 [40]: > 50 µg/mL; IC50 (neutralizing activity, pseudovirus) [32]: > 10 µg/mL; IC50 (µg/mL), pseudovirus neutralization [41]: > 50 µg/mL; IC50 (µg/mL), pseudovirus neutralization [42]: > 50 µg/mL; IC50 [43]: > 50 µg/mL; IC50 neutralization [44]: > 50 µg/mL; IC50 neutralization [45]: > 50 µg/mL
10 | 5343_B08 (PGT-135) (antibody) |  |  |  |  | > 10 |  |  |  |  |  |  |  | 6.5 |  |  | IC50 neutralization [33]: > 50 µg/mL; IC50 (µg/mL), pseudovirus neutralization [34]: 2.21 µg/mL; IC50 (µg/mL), pseudovirus neutralization [35]: > 50 µg/mL; IC50 (µg/mL), pseudovirus neutralization [36]: 41.9 µg/mL; IC50 [37]: > 50 µg/mL; IC50 neutralization [38]: > 50 µg/mL; IC50 (µg/mL), pseudovirus neutralization [39]: > 50 µg/mL; IC50 [40]: > 50 µg/mL; IC50 (neutralizing activity, pseudovirus) [32]: > 10 µg/mL; IC50 (µg/mL), pseudovirus neutralization [41]: > 50 µg/mL; IC50 (µg/mL), pseudovirus neutralization [42]: 0.017 µg/mL; IC50 [43]: > 50 µg/mL; IC50 neutralization [44]: > 50 µg/mL; IC50 neutralization [45]: 5.15 µg/mL
